Experimental data reported in patent US20250051454A1 (DUKE UNIVERSITY, published 2025).

How the values were obtained:
[1] = molecular target: T1, HLA-E-RL9SIV single chain trimer on transfected 293T cells (human, UniProt P61769 21-119; P13747 22-358); assay: flow cytometry on SCT-transfected 293T cells
T1 construct: also called control HLA-E-peptide complex

[2] = molecular target: T2, soluble HLA-E-VL9 complex (HLA-E*01:03 heavy chain, beta2-microglobulin, VL9 peptide …) (human); assay: SPR, antibody on CM5 chip, soluble HLA-E-VL9 flowed over, 1:1 model; IgM 3H4
T2 construct: also called VL9 peptide-loaded HLA-E

[3] = molecular target: HLA-E on K562-E cells loaded with microbiome-derived peptide […] (Stenotrophomonas sp.) (human, UniProt P13747 22-358; P61769 21-119); assay: flow cytometry on peptide-loaded K562-E cells, antibody 10 µg/ml
[4] = molecular target: HLA-E on K562-E cells loaded with microbiome-derived peptide […] (Pseudomonas formosensis) (human, UniProt P13747 22-358; P61769 21-119); assay: as above
[5] = molecular target: HLA-E on K562-E cells loaded with microbiome-derived peptide […] (Escherichia coli MS 175-1) (human, UniProt P13747 22-358; P61769 21-119); assay: as above
[6] = molecular target: T3, soluble HLA-E-RL9HIV complex (Homo sapiens); assay: sandwich ELISA: plate coated with the antibody in serial dilution, C-trap-stabilized HLA-E-RL9HIV added, detection with HRP anti-human β2M [panel C]
T3 construct: C-trap-stabilized in the ELISA, biotinylated in the SPR; control antigen; also called C-trap-stabilized HLA-E-RL9HIV

[7] = molecular target: T4, soluble HLA-E-RL9SIV complex (Homo sapiens); assay: sandwich ELISA: plate coated with the antibody in serial dilution, C-trap-stabilized HLA-E-RL9SIV added, detection with HRP anti-human β2M [panel C]
T4 construct: C-trap-stabilized in the ELISA, biotinylated in the SPR; control antigen; also called C-trap-stabilized HLA-E-RL9SIV

[8] = molecular target: T5, Sjogren's syndrome antigen (SSB) (UniProt P05455 1-408); assay: AtheNA autoantigen assay [panel H]
T5 sequence (looked up): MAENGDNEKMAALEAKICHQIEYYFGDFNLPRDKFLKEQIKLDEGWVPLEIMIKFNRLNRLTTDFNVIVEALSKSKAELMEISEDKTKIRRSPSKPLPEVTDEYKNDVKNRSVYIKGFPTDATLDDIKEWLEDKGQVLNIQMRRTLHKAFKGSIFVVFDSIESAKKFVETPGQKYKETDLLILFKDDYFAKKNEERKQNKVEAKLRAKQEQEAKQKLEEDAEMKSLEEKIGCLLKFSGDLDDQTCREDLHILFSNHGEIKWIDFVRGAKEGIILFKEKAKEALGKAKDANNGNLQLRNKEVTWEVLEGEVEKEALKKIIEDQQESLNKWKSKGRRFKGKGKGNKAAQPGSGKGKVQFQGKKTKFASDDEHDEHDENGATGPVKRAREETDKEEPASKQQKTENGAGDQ

[9] = molecular target: T6, centromere B (Cent B) (UniProt P07199 1-599); assay: AtheNA autoantigen assay [panel H]
T6 sequence (looked up): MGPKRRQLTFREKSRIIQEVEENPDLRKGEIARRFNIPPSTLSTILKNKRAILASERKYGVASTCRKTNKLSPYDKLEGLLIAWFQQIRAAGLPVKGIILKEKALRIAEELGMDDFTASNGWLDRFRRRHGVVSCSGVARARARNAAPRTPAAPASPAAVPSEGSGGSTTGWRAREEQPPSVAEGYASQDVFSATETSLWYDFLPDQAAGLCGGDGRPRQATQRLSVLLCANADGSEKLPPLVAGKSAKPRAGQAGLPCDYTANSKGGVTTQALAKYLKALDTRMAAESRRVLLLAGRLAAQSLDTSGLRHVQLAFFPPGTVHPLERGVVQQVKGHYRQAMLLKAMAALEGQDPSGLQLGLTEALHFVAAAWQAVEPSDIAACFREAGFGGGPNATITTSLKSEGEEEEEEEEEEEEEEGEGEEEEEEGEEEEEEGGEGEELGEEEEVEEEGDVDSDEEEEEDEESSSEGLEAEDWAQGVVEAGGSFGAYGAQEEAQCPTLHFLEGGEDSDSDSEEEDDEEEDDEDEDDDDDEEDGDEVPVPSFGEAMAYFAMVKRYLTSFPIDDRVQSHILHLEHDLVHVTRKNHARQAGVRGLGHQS

[10] = molecular target: T7, scleroderma 70 (Scl-70) (UniProt P11387 2-765); assay: AtheNA autoantigen assay [panel H]
T7 sequence (looked up): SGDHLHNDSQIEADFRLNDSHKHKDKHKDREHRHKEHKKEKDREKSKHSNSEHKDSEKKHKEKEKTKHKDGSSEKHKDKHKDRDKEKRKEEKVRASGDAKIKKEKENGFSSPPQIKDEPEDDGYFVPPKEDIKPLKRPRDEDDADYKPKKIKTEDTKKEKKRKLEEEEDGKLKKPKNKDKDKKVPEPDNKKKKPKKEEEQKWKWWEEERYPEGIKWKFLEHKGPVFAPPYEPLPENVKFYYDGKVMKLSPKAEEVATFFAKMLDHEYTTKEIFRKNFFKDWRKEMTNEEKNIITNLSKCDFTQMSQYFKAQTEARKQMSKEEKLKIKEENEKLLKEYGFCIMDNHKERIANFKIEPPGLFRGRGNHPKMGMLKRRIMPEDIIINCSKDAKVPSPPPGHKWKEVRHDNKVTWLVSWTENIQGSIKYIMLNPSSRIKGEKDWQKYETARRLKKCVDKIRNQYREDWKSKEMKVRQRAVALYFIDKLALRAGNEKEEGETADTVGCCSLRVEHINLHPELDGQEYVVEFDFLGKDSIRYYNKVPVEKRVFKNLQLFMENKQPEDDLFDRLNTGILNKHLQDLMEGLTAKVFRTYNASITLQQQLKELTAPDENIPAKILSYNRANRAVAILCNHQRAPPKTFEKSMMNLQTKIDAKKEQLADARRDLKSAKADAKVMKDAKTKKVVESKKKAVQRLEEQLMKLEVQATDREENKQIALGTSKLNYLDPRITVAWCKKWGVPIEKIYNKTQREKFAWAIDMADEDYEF

[11] = molecular target: T8, Jo-1 antigen (UniProt P12081 2-509); assay: AtheNA autoantigen assay [panel H]
T8 sequence (looked up): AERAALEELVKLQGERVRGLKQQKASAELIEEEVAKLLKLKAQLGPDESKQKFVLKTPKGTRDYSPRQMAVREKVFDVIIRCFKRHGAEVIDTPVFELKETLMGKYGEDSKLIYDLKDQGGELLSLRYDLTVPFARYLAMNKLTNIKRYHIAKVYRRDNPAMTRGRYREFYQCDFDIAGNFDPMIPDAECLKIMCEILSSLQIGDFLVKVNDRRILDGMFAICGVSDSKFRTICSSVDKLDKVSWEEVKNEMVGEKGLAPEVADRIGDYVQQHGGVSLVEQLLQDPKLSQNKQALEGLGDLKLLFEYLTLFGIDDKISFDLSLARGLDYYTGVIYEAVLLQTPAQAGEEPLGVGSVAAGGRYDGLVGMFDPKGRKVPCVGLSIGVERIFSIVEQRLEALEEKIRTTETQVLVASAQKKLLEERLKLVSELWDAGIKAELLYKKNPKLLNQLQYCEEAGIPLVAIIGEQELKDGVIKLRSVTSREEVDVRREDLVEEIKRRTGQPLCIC

[12] = molecular target: T2, soluble HLA-E-VL9 complex (HLA-E*01:03 …); assay: SPR, antibody on CM5 chip, soluble HLA-E-VL9 flowed over, 1:1 model; human IgG1 backbone 3H4
[13] = molecular target: T1, HLA-E-RL9SIV single chain trimer on …; assay: flow cytometry, SCT-transfected 293T cells, MFI bar chart [E]
[14] = molecular target: T9, HLA-E-RL9HIV single chain trimer on transfected 293T cells (human, UniProt P61769 21-119; P13747 22-358); assay: as above
T9 construct: also called control HLA-E-peptide complex

[15] = molecular target: T2, soluble HLA-E-VL9 complex (HLA-E*01:03 …); assay: SPR, antibody (human IgG1) on CM5 chip, soluble HLA-E-VL9 flowed over; CA123 on a human IgG1 backbone
[16] = molecular target: T2, soluble HLA-E-VL9 complex (HLA-E*01:03 …)

B1: 3H4 (mouse IgM monoclonal antibody) (antibody, V domains shown)
VH: EVQLQESGPELVKPGASVKIPCKASGYTFTDYNMDWVKQSHGKSLEWIGDINPNNGGTIYNQKFKGKATLTVDKSSSTAYMELRSLTSEDTAVYYCARPDYYGSSYGWYFDVWGTGTTVTVSS
VL: DIVITQSPSSMYASLGERVTITCKASQDINSYLSWFQQKPGKSPKTLIYRANRLVDGVPSRFSGSGSGQDYSLTISSLEYEDMGIYYCLQYDEFPLTFGAGTKLELK
notes: also called mAb 3H4; IgM 3H4
- binding result [1]: no binding
- Kd [2]: 8.1 µM
- binding result [3]: binds
- binding result [4]: binds
- binding result [5]: binds
- binding result [6]: no binding
- binding result [7]: no binding

B2: 3H4 on a human IgG1 backbone (3H4 Gwt) (antibody, V domains shown)
VH: B1 VH
VL: B1 VL
notes: also called 3H4 IgG; wild-type 3H4 IgG
- binding result [8]: no binding
- binding result [9]: no binding
- binding result [10]: no binding
- binding result [11]: no binding
- Kd [12]: 49.8 µM

B3: CA123 (human antibody on a human IgG1 backbone) (antibody, V domains shown)
VH: EVQLVESGGGLVQPGGSLRLSCAASGFTFSSYWMHWVRQAPGKGLVWVSRINSDGSSTSYADSVKGRFTISRDNAKNTLYLQMNSLRAEDTAVYYCARDQGSTSCYYCYYGMDVWGQGTTVTVSS
VL: not shown
notes: also called CA123 IgG
- binding result [13]: no binding (tested: 2 µg/ml)
- binding result [14]: no binding (tested: 2 µg/ml)
- Kd [15]: 3.8 µM
- koff [16]: 0.794 s⁻¹
- kon [16]: 211000 M⁻¹ s⁻¹
